Values of other authors as cited in PMC5450005.
Like-named read-outs stand apart in the source and are kept apart here.

What was measured:
[1] = molecular target: ApelinR (Rattus norvegicus) (UniProt Q9JHG3)
[2] = molecular target: ApelinR (Rattus norvegicus) (UniProt Q9JHG3); remark: listed apart in the source

UniProt Q9JHG3, sequence (Q9JHG3 whole entry): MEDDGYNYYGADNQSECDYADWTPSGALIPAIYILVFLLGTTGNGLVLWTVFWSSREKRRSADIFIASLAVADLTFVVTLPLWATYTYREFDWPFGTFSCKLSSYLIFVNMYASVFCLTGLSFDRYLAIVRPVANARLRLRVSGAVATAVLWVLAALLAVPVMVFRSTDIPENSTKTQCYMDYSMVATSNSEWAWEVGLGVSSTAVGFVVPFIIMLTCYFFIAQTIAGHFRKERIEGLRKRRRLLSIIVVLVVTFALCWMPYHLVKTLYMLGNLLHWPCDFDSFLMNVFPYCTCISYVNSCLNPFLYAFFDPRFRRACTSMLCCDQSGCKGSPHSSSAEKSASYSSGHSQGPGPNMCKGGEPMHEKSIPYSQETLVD

| Ki [1] [nM] | Ki [2] [nM] | Substance |
| --- | --- | --- |
| 0.56 |  | pE13F (apelin-13) (from UniProt Q9ULZ1) |
|  | 0.06 | K17F (apelin-17) (from UniProt Q9ULZ1) |
